In test [1] the target is HLA-A*02:01 in complex with PRAME300-309 peptide …, on T2 cells expressing the PresentER ALY minigene (human). Kind of test: flow cytometry histograms, T2 cells expressing PresentER minigenes. For orientation: A flow cytometer gives signals particle by particle.
The target in test [2] is HLA-A*02:01 in complex with WT1 aa126-134 peptide …, on T2 cells expressing the PresentER RMF minigene (human). Kind of test: >.

Consider “ESK1 TCR mimic (TCRm) monoclonal antibody”, for which the results for the fluorescence units (FU) in test [1] and in test [2] were below 1000 FU and 1000 >, respectively.

With “Pr20 TCR mimic (TCRm) monoclonal antibody”, in test [1], the fluorescence units (FU) was above 1100 FU.

For the origin of these results see patent US20190227063A1.
